The values that follow come from patent US20050227306.

Data set [1] deals with His6-tetraCys-X-MBP protease substrate 21-F [MBP: P0AEX9].
Data set [2] concerns His6-tetraCys-X-MBP protease substrate 22-F [MBP: P0AEX9].
The subject of data set [3] is His6-tetraCys-X-MBP protease substrate 23-F [MBP: P0AEX9].
Data set [4] concerns His6-tetraCys-X-MBP protease substrate 24-F [MBP: P0AEX9].
For data set [5], the system named is His6-tetraCys-X-MBP protease substrate 25-F [MBP: P0AEX9].
Data set [6] deals with His6-tetraCys-X-MBP protease substrate 26-F [MBP: P0AEX9].

Turning to Trypsin, the relative rate of reaction (initial proteolysis rate by fluorescence anisotropy, normalised to the cognate substrate) (relative rate) in data set [1] is 0.3; in data set [2] it was 1; in data set [3], 0.1; in data set [4], 0.4; in data set [5] it was 0.5. Besides, in data set [2], the “specific reaction rate (slope of initial proteolysis rate versus protease concentration)” value is on record as “trypsin; 760±60”. Further, the “relative rate of reaction (initial proteolysis rate by fluorescence anisotropy, normalised to the cognate substrate)” value in data set [6] is listed as “n.d. (not detected)”.

As for Enterokinase, the relative rate of reaction (initial proteolysis rate by fluorescence anisotropy, normalised to the cognate substrate) (relative rate) turned out to be 0.5 in data set [1]; 1.3 in data set [2]; 1 in data set [3]; 0.2 in data set [4]; 1 in data set [6]. Moreover, in data set [3], the “specific reaction rate (per supplier's unit of enzyme)” value is “enterokinase, 0.130±0.007”. For the same substance, the “relative rate of reaction (initial proteolysis rate by fluorescence anisotropy, normalised to the cognate substrate)” value in data set [5] was “n.d. (not detected)”.

Turning to Thrombin, the relative rate of reaction (initial proteolysis rate by fluorescence anisotropy, normalised to the cognate substrate) (relative rate) is 0 in data set [1]; 0.4 in data set [2]; -0.02 in data set [3]; 0 in data set [4]; 1 in data set [5]; 0 in data set [6]. Moreover, the “specific reaction rate (per supplier's unit of enzyme)” value in data set [5] is given as “thrombin, 0.20±0.02”. For the same substance, the “specific reaction rate (slope of initial proteolysis rate versus protease concentration)” value in data set [5] is “thrombin; 240±20”.

Factor Xa: the “SDS-PAGE with Coomassie staining after overnight incubation” value in data set [1] is recorded as “formation of a small amount of a small molecular-weight band”; in data set [2] it was “little or no intact fusion protein was detected after an overnight incubation”; in data set [3] it was “formation of a small amount of a small molecular-weight band”; in data set [4] it was “little or no intact fusion protein was detected after an overnight incubation”; in data set [5] it was “formation of a small amount of a small molecular-weight band”. Moreover, the relative rate of reaction (initial proteolysis rate by fluorescence anisotropy, normalised to the cognate substrate) (relative rate) worked out at 0.04 in data set [1]; 0.5 in data set [2]; 0.01 in data set [3]; 1 in data set [4]; 0.05 in data set [5]; 0 in data set [6]. In addition, the “specific reaction rate (per supplier's unit of enzyme)” value in data set [4] was “Factor Xa, 0.37±0.03”.
